Numbering of substitutions follows the chain as printed.
B1: h001-14 (antibody, human IgG1, V domains shown)
VH: QVQLVQSGAEVKKPGASVKVSCKASGYTFNDYWMHWVRQAPGQGLEWMGYINPSSGFTKYHQNFKDRVTMTRDTSISTAYMELSRLTSDDTAVYYCARQYDYDEDWYFDVWGQGTTVTVSS
VL: DIQMTQSPSSLSASVGDRVTITCKSSQSLLNSRTRKNFLAWYQQKPGKAPKLLIYWASTRESGVPDRFSGSGSGTDFTLTISSLQPEDFATYYCKQSFNLFTFGQGTKLEIK
notes: Variable regions only; also called h001_VH.1C + h001_VL.1A
B2: h001-1 (antibody, human IgG1, V domains shown)
VH: B1 VH with N30T, T87R
VL: B1 VL with D66S
notes: Variable regions only; also called h001_VH.1 + h001_VL.1
B3: h001-2 (antibody, human IgG1, V domains shown)
VH: B1 VH with N30T, T87R
VL: B1 VL
notes: Variable regions only; also called h001_VH.1 + h001_VL.1A
B4: h001-3 (antibody, human IgG1, V domains shown)
VH: B1 VH with N30T, T87R
VL: B1 VL with T5S
notes: Variable regions only; also called h001_VH.1 + h001_VL.1B
B5: h001-5 (antibody, human IgG1, V domains shown)
VH: B1 VH with T87R
VL: B1 VL with D66S
notes: Variable regions only; also called h001_VH.1A + h001_VL.1
B6: h001-6 (antibody, human IgG1, V domains shown)
VH: B1 VH with T87R
VL: B1 VL
notes: Variable regions only; also called h001_VH.1A + h001_VL.1A
B7: h001-7 (antibody, human IgG1, V domains shown)
VH: B1 VH with T87R
VL: B1 VL with T5S
notes: Variable regions only; also called h001_VH.1A + h001_VL.1B
B8: h001-8 (antibody, human IgG1, V domains shown)
VH: B1 VH with T87R
VL: B1 VL with Q3V, T5S, A49S
notes: Variable regions only; also called h001_VH.1A + h001_VL.1C
B9: h001-9 (antibody, human IgG1, V domains shown)
VH: B1 VH with N30T
VL: B1 VL with D66S
notes: Variable regions only; also called h001_VH.1B + h001_VL.1
B10: h001-11 (antibody, human IgG1, V domains shown)
VH: B1 VH with N30T
VL: B1 VL with T5S
notes: Variable regions only; also called h001_VH.1B + h001_VL.1B
B11: h001-12 (antibody, human IgG1, V domains shown)
VH: B1 VH with N30T
VL: B1 VL with Q3V, T5S, A49S
notes: Variable regions only; also called h001_VH.1B + h001_VL.1C
B12: h001-13 (antibody, human IgG1, V domains shown)
VH: B1 VH
VL: B1 VL with D66S
notes: Variable regions only; also called h001_VH.1C + h001_VL.1
B13: h001-15 (antibody, human IgG1, V domains shown)
VH: B1 VH
VL: B1 VL with T5S
notes: Variable regions only; also called h001_VH.1C + h001_VL.1B
B14: h001-16 (antibody, human IgG1, V domains shown)
VH: B1 VH
VL: B1 VL with Q3V, T5S, A49S
notes: Variable regions only; also called h001_VH.1C + h001_VL.1C
B15: h001-17 (antibody, human IgG1, V domains shown)
VH: B1 VH with R72A, T74K
VL: B1 VL with D66S
notes: Variable regions only; also called h001_VH.1D + h001_VL.1
B16: h001-18 (antibody, human IgG1, V domains shown)
VH: B1 VH with R72A, T74K
VL: B1 VL
notes: Variable regions only; also called h001_VH.1D + h001_VL.1A
B17: h001-19 (antibody, human IgG1, V domains shown)
VH: B1 VH with R72A, T74K
VL: B1 VL with T5S
notes: Variable regions only; also called h001_VH.1D + h001_VL.1B
B18: h001-20 (antibody, human IgG1, V domains shown)
VH: B1 VH with R72A, T74K
VL: B1 VL with Q3V, T5S, A49S
notes: Variable regions only; also called h001_VH.1D + h001_VL.1C
B19: h001-21 (antibody, human IgG1, V domains shown)
VH: B1 VH with R38K, M48I, R67K, V68A, M70L, R72A, T74K
VL: B1 VL with D66S
notes: Variable regions only; also called h001_VH.1E + h001_VL.1
B20: h001-22 (antibody, human IgG1, V domains shown)
VH: B1 VH with R38K, M48I, R67K, V68A, M70L, R72A, T74K
VL: B1 VL
notes: Variable regions only; also called h001_VH.1E + h001_VL.1A
B21: h001-23 (antibody, human IgG1, V domains shown)
VH: B1 VH with R38K, M48I, R67K, V68A, M70L, R72A, T74K
VL: B1 VL with T5S
notes: Variable regions only; also called h001_VH.1E + h001_VL.1B
B22: h001-24 (antibody, human IgG1, V domains shown)
VH: B1 VH with R38K, M48I, R67K, V68A, M70L, R72A, T74K
VL: B1 VL with Q3V, T5S, A49S
notes: Variable regions only; also called h001_VH.1E + h001_VL.1C

biological target: T1, PCSK9-D374Y-BP15-His6 (human, UniProt Q8NBP7 31-692, biotin on the BP15 biotin receiving peptide); assay: ELISA, bio-PCSK9-Y captured on streptavidin plate
T1 construct: also called PCSK9-Y; mutant PCSK9
Protocol: The binding ability of anti-PCSK9 antibodies of the present invention to PCSK9-Y was detected by measuring the amount of antibodies binding to PCSK9-Y (mutant PCSK9, SEQ ID NO: 6) fixed on the ELISA plate.
Streptavidin (sigma, CAT#54762) was diluted to 2 μg/ml with PBS and coated into 96-well ELISA plate at 4° C. overnight. The plate was washed and then blocked with Tris buffer (including 0.9 mM CaCl₂, 0.05% Tween 20 and 5% skim milk) at 37° C. for 2 hours. Then the plate was washed again and 100 μl/well of the biotin-labeled PCSK9-Y, produced in-house, (bio-PCSK9-Y, diluted with Tris buffer containing 0.9 mM CaCl₂, 0.05% Tween 20 and 1% skim milk) was added and incubated at 37° C. for 1 hour. After the wash step, different concentrations of diluted PCSK9 antibody samples were added to the plate and incubated at 37° C. for 1 hour. Then the plate was washed again and HRP-goat-anti-human (H+L) antibody (Jackson ImmunoResearch, CAT#109-035-088) was added and incubated at 37° C. for 1 hour. Then the plate was washed again and tetramethylbenzidine solution was added for development. Finally, the stop solution was added and the OD450 value was measured on the Microplate reader, and then EC50 was calculated.
The results of ELISA test for the binding ability of chimeric antibodies and back-mutated antibodies of the present invention to mutant PCSK9 are shown in table 6.

Row | Binder | EC50
1 | B1 | 0.0112 µg/mL
2 | B2 | 0.0132 µg/mL
3 | B3 | 0.0157 µg/mL
4 | B4 | 0.0152 µg/mL
5 | B5 | 0.0152 µg/mL
6 | B6 | 0.0144 µg/mL
7 | B7 | 0.0137 µg/mL
8 | B8 | 0.0165 µg/mL
9 | B9 | 0.0194 µg/mL
10 | B10 | 0.017 µg/mL
11 | B11 | 0.0124 µg/mL
12 | B12 | 0.0096 µg/mL
13 | B13 | 0.0178 µg/mL
14 | B14 | 0.0111 µg/mL
15 | B15 | 0.0161 µg/mL
16 | B16 | 0.0191 µg/mL
17 | B17 | 0.0204 µg/mL
18 | B18 | 0.017 µg/mL
19 | B19 | 0.0119 µg/mL
20 | B20 | 0.0111 µg/mL
21 | B21 | 0.0125 µg/mL
22 | B22 | 0.017 µg/mL

biological target: T2, PCSK9-BP15-His6 (human, UniProt Q8NBP7 31-692, biotin on the BP15 biotin receiving peptide); assay: ELISA, bio-WT-PCSK9 captured on streptavidin plate
T2 construct: It holds a signal peptide (underlined in print); also called WT PCSK9; bio-WT-PCSK9
Protocol: The binding ability of anti-PCSK9 antibodies of the present invention to PCSK9 was detected by measuring the amount of antibodies binding to wild-type PCSK9 protein (WT PCSK9, SEQ ID NO: 5) fixed on the ELISA plate.
Streptavidin (sigma, CAT#S4762) was diluted to 2 μg/ml with PBS and coated into 96-well ELISA plate, at 4° C. overnight. The plate was washed and then blocked with Tris buffer (including 0.9 mM CaCl2, 0.05% Tween 20 and 5% skim milk) at 37° C. for 2 hours. Then the plate was washed again and 100 μl/well of the biotin-labeled PCSK9, produced in-house, (bio-WT-PCSK9, diluted with Tris buffer containing 0.9 mM CaCl2, 0.05% Tween 20 and 1% skim milk), was added and incubated at 37° C. for 1 hour. After the wash step, different concentrations of diluted PCSK9 antibody samples was added to the plate and incubated at 37° C. for 1 hour. Then the plate was washed again and HRP-goat-anti-human (H+L) antibody (Jackson ImmunoResearch, CAT#109-035-088) was added and incubated at 37° C. for 1 hour. Then the plate was washed again and tetramethylbenzidine solution was added for development. Finally, the stop solution was added and the OD450 value was measured on the Microplate reader, and then EC50 was calculated.

Row | Binder | EC50
23 | B1 | 0.0084 µg/mL
24 | B2 | 0.0084 µg/mL
25 | B3 | 0.0123 µg/mL
26 | B4 | 0.0113 µg/mL
27 | B5 | 0.0141 µg/mL
28 | B6 | 0.01 µg/mL
29 | B7 | 0.012 µg/mL
30 | B8 | 0.009 µg/mL
31 | B9 | 0.0136 µg/mL
32 | B10 | 0.0129 µg/mL
33 | B11 | 0.0103 µg/mL
34 | B12 | 0.0071 µg/mL
35 | B13 | 0.011 µg/mL
36 | B14 | 0.0082 µg/mL
37 | B15 | 0.0114 µg/mL
38 | B16 | 0.0147 µg/mL
39 | B17 | 0.0139 µg/mL
40 | B18 | 0.0126 µg/mL
41 | B19 | 0.0145 µg/mL
42 | B20 | 0.0123 µg/mL
43 | B21 | 0.0118 µg/mL
44 | B22 | 0.0092 µg/mL

biological target: T1, PCSK9-D374Y-BP15-His6; assay: blocking ELISA, LDLR-FC (SEQ ID NO: 8) coated, bio-PCSK9-Y plus antibody
Protocol: The blocking abilities of anti-PCSK9 antibodies to the binding of LDLR-FC (SEQ ID NO: 8) to PCSK9-Y (mutant PCSK9, SEQ ID NO: 6) were detected by measuring the amount of PCSK9-Y binding to LDLR in the presence of the antibodies.
LDLR-FC was diluted to 2 μg/ml with phosphate buffer and coated in the 96-well ELISA plate (Costar, CAT#3590), then incubated at 4° C. overnight. The plate was washed and then blocked with Tris buffer (including 0.9 mM CaCl₂, 0.05% Tween 20 and 5% skim milk) at 37° C. for 2 hours. Then the plate was washed again and 100 μl/well of the mixture of biotin-labeled PCSK9-Y (bio-PCSK9-Y, diluted to final concentration of […] with Tris buffer containing 0.9 mM CaCl₂, 0.05% Tween 20 and 1% skim milk) and antibody samples (diluted with Tris buffer containing 0.9 mM CaCl₂, 0.05% Tween 20 and 1% skim milk) were added and incubated at 37° C. for 1 hour. Then the plate was washed again and horseradish peroxidase-streptavidin (sigma, CAT#S2438) was added and incubated at 37° C. for 1 hour. Then the plate was washed and tetramethylbenzidine solution was added for development. Finally, the stop solution was added and the OD450 value was measured on the Microplate reader, then IC50 was calculated.
The results of blocking test for the blocking effects of the chimeric antibodies and back-mutated antibodies of the present invention on the binding of LDLR-FC/PCSK9-Y are shown in table 7.

Row | Binder | IC50
45 | B2 | 0.566 µg/mL
46 | B3 | 0.455 µg/mL
47 | B4 | 0.475 µg/mL
48 | B5 | 0.468 µg/mL
49 | B6 | 0.437 µg/mL
50 | B7 | 0.515 µg/mL
51 | B8 | 0.414 µg/mL
52 | B9 | 0.52 µg/mL

biological target: T2, PCSK9-BP15-His6; assay: blocking ELISA, LDLR-FC (SEQ ID NO: 8) coated, bio-WT-PCSK9 plus antibody
Protocol: The blocking abilities of PCSK9 antibodies of the present invention to the binding of LDLR-FC (produced in-house, sequence is shown in SEQ ID NO: 8) to PCSK9 (SEQ ID NO: 5) were detected by measuring the amount of PCSK9 binding to LDLR in the presence of the antibodies.
LDLR-FC was diluted to 5 μg/ml with phosphate buffer and coated in the 96-well ELISA plate, then incubated at 4° C. overnight. The plate was washed and then blocked with Tris buffer (including 0.9 mM CaCl₂, 0.05% Tween 20 and 5% skim milk) at 37° C. for 2 hours. Then the plate was washed again and 100 μl/well of the mixture of biotin-labeled PCSK9 (bio-WT-PCSK9, diluted to the final concentration of 2 μg/ml with Tris buffer containing 0.9 mM CaCl₂, 0.05% Tween 20 and 1% skim milk) and antibody samples (diluted with Tris buffer containing 0.9 mM CaCl₂, 0.05% Tween 20 and 1% skim milk) were added and incubated at 37° C. for 1 hour. Then the plate was washed again and horseradish peroxidase-streptavidin (Sigma, CAT#52438) was added and incubated at 37° C. for 1 hour. Then the plate was washed and tetramethylbenzidine solution was added for development. Finally, the stop solution was added and the OD450 was measured on the Microplate reader, then IC50 was calculated.

Row | Binder | IC50
53 | B2 | 0.5 µg/mL
54 | B3 | 0.675 µg/mL
55 | B4 | 0.702 µg/mL
56 | B5 | 4.32 µg/mL
57 | B6 | 0.662 µg/mL
58 | B7 | 0.652 µg/mL
59 | B8 | 0.774 µg/mL
60 | B9 | 0.923 µg/mL

— US20190016825A1 (JIANGSU HENGRUI MEDICINE, published 2019)
